Measurements as given in patent US20170190753A1 (LABORATOIRE FRANCAIS DU FRACTIONNEMENT ET DES …, published 2017).

B1: pCEP4-1NT10-19CT20 (other)
chain: EDCNELPPRRNTEILTGSWSDQTYPEGTQAIYKCRPGYRSLGNVIMVCRKGEWVALNPLRKCQKRPCGHPGDTPFGTFTLTGGNVFEYGVKAVYTCNEGYQLLGEINYRECDTDGWTNDIPICEVVKCLPVTAPENGKIVSSAMEPDREYHFGQAVRFVCNSGYKIEGDEEMHCSDDGFWSKEKPKCVEISCKSPDVINGSPISQKIIYKENERFQYKCNMGYEYSERGDAVCTESGWRPLPSCEEKSCDNPYIPNGDYSPLRIKHRTGDEITYQCRNGFYPATRGNTAKCTSTGWIPAPRCTLKPCDYPDIKHGGLYHENMRRPYFPVAVGKYYSYYCDEHFETPSGSYWDHIHCTQDGWSPAVPCLRKCYFPYLENGYNQNHGRKFVQGKSIDVACHPGYALPKAQTTVTCMENGWSPTPRCIRVKTCSKSSIDIENGFISESQYTYALKEKAKYQCKLGYVTADGETSGSITCGKDGWSAQPTCIKSCDIPVFMNARTKNDFTWFKLNDTLDYECHDGYESNTGSTTGSIVCGYNGWSDLPICYERECELPKIDVHLVPDRKKDQYKVGEVLKFSCKPGFTIVGPNSVQCYHFGLSPDLPICKEQVQSGASGCGPPPPIDNGDITSFPLSVYAPASSVEYQCQNLYQLEGNKRITCRNGQWSEPPKCLHPCVISREIMENYNIALRWTAKQKLYSRTGESVEFVCKRGYRLSSRSHTLRTTCWDGKLEYPTCAKRGGSGHHHHHH
B2: pCEP4-1NT9-15CT20 (other)
chain: EDCNELPPRRNTEILTGSWSDQTYPEGTQAIYKCRPGYRSLGNVIMVCRKGEWVALNPLRKCQKRPCGHPGDTPFGTFTLTGGNVFEYGVKAVYTCNEGYQLLGEINYRECDTDGWTNDIPICEVVKCLPVTAPENGKIVSSAMEPDREYHFGQAVRFVCNSGYKIEGDEEMHCSDDGFWSKEKPKCVEISCKSPDVINGSPISQKIIYKENERFQYKCNMGYEYSERGDAVCTESGWRPLPSCEEKSCDNPYIPNGDYSPLRIKHRTGDEITYQCRNGFYPATRGNTAKCTSTGWIPAPRCTLKPCDYPDIKHGGLYHENMRRPYFPVAVGKYYSYYCDEHFETPSGSYWDHIHCTQDGWSPAVPCLRKCYFPYLENGYNQNYGRKFVQGKSIDVACHPGYALPKAQTTVTCMENGWSPTPRCIRVKTCSKSSIDIENGFISESQYTYALKEKAKYQCKLGYVTADGETSGSITCGKDGWSAQPTCIKSCDIPVFMNARTKNDFTWFKLNDTLDYECHDGYESNTGSTTGSIVCGYNGWSDLPICYEREGASGCSQPPQIEHGTINSSRSSQESYAHGTKLSYTCEGGFRISEENETTCYMGKWSSPPQCEGLPCKSPPEISHGVVAHMSDSYQYGEEVTYKCFEGFGIDGPAIAKCLGEKWSHPPSCIKTDCLSLPSFENAIPMGEKKDVYKAGEQVTYTCATYYKMDGASNVTCINSRWTGRPTCRDTSCVNPPTVQNAYIVSRQMSKYPSGERVRYQCRSPYEMFGDEEVMCLNGNWTEPPQCKDSTGKCGPPPPIDNGDITSFPLSVYAPASSVEYQCQNLYQLEGNKRITCRNGQWSEPPKCLHPCVISREIMENYNIALRWTAKQKLYSRTGESVEFVCKRGYRLSSRSHTLRTTCWDGKLEYPTCAKRGGSGHHHHHH
B3: pCEP4-1NT8-19CT20 (other)
chain: EDCNELPPRRNTEILTGSWSDQTYPEGTQAIYKCRPGYRSLGNVIMVCRKGEWVALNPLRKCQKRPCGHPGDTPFGTFTLTGGNVFEYGVKAVYTCNEGYQLLGEINYRECDTDGWTNDIPICEVVKCLPVTAPENGKIVSSAMEPDREYHFGQAVRFVCNSGYKIEGDEEMHCSDDGFWSKEKPKCVEISCKSPDVINGSPISQKIIYKENERFQYKCNMGYEYSERGDAVCTESGWRPLPSCEEKSCDNPYIPNGDYSPLRIKHRTGDEITYQCRNGFYPATRGNTAKCTSTGWIPAPRCTLKPCDYPDIKHGGLYHENMRRPYFPVAVGKYYSYYCDEHFETPSGSYWDHIHCTQDGWSPAVPCLRKCYFPYLENGYNQNYGRKFVQGKSIDVACHPGYALPKAQTTVTCMENGWSPTPRCIRVKTCSKSSIDIENGFISESQYTYALKEKAKYQCKLGYVTADGETSGSITCGKDGWSAQPTCIKSGASGCGPPPPIDNGDITSFPLSVYAPASSVEYQCQNLYQLEGNKRITCRNGQWSEPPKCLHPCVISREIMENYNIALRWTAKQKLYSRTGESVEFVCKRGYRLSSRSHTLRTTCWDGKLEYPTCAKRGGSGHHHHHH
B4: pCEP4-1NT8-12CT20 (other)
chain: EDCNELPPRRNTEILTGSWSDQTYPEGTQAIYKCRPGYRSLGNVIMVCRKGEWVALNPLRKCQKRPCGHPGDTPFGTFTLTGGNVFEYGVKAVYTCNEGYQLLGEINYRECDTDGWTNDIPICEVVKCLPVTAPENGKIVSSAMEPDREYHFGQAVRFVCNSGYKIEGDEEMHCSDDGFWSKEKPKCVEISCKSPDVINGSPISQKIIYKENERFQYKCNMGYEYSERGDAVCTESGWRPLPSCEEKSCDNPYIPNGDYSPLRIKHRTGDEITYQCRNGFYPATRGNTAKCTSTGWIPAPRCTLKPCDYPDIKHGGLYHENMRRPYFPVAVGKYYSYYCDEHFETPSGSYWDHIHCTQDGWSPAVPCLRKCYFPYLENGYNQNYGRKFVQGKSIDVACHPGYALPKAQTTVTCMENGWSPTPRCIRVKTCSKSSIDIENGFISESQYTYALKEKAKYQCKLGYVTADGETSGSITCGKDGWSAQPTCIKSGASGCGDIPELEHGWAQLSSPPYYYGDSVEFNCSESFTMIGHRSITCIHGVWTQLPQCVAIDKLKKCKSSNLIILEEHLKNKKEFDHNSNIRYRCRGKEGWIHTVCINGRWDPEVNCSMAQIQLCPPPPQIPNSHNMTTTLNYRDGEKVSVLCQENYLIQEGEEITCKDGRWQSIPLCVEKIPCSQPPQIEHGTINSSRSSQESYAHGTKLSYTCEGGFRISEENETTCYMGKWSSPPQCEGLPCKSPPEISHGVVAHMSDSYQYGEEVTYKCFEGFGIDGPAIAKCLGEKWSHPPSCIKTDCLSLPSFENAIPMGEKKDVYKAGEQVTYTCATYYKMDGASNVTCINSRWTGRPTCRDTSCVNPPTVQNAYIVSRQMSKYPSGERVRYQCRSPYEMFGDEEVMCLNGNWTEPPQCKDSTGKCGPPPPIDNGDITSFPLSVYAPASSVEYQCQNLYQLEGNKRITCRNGQWSEPPKCLHPCVISREIMENYNIALRWTAKQKLYSRTGESVEFVCKRGYRLSSRSHTLRTTCWDGKLEYPTCAKRGGSGHHHHHH

Biological target: C3 convertase complex (UniProt P01024 23-1663; P00751 260-764)
Assay: cell-based or functional assay
For C3 convertase activity % of the control in this document: test concentration or dose not given here.

C3 convertase complex, sequence (P01024 23-1663, chain 1 of 2): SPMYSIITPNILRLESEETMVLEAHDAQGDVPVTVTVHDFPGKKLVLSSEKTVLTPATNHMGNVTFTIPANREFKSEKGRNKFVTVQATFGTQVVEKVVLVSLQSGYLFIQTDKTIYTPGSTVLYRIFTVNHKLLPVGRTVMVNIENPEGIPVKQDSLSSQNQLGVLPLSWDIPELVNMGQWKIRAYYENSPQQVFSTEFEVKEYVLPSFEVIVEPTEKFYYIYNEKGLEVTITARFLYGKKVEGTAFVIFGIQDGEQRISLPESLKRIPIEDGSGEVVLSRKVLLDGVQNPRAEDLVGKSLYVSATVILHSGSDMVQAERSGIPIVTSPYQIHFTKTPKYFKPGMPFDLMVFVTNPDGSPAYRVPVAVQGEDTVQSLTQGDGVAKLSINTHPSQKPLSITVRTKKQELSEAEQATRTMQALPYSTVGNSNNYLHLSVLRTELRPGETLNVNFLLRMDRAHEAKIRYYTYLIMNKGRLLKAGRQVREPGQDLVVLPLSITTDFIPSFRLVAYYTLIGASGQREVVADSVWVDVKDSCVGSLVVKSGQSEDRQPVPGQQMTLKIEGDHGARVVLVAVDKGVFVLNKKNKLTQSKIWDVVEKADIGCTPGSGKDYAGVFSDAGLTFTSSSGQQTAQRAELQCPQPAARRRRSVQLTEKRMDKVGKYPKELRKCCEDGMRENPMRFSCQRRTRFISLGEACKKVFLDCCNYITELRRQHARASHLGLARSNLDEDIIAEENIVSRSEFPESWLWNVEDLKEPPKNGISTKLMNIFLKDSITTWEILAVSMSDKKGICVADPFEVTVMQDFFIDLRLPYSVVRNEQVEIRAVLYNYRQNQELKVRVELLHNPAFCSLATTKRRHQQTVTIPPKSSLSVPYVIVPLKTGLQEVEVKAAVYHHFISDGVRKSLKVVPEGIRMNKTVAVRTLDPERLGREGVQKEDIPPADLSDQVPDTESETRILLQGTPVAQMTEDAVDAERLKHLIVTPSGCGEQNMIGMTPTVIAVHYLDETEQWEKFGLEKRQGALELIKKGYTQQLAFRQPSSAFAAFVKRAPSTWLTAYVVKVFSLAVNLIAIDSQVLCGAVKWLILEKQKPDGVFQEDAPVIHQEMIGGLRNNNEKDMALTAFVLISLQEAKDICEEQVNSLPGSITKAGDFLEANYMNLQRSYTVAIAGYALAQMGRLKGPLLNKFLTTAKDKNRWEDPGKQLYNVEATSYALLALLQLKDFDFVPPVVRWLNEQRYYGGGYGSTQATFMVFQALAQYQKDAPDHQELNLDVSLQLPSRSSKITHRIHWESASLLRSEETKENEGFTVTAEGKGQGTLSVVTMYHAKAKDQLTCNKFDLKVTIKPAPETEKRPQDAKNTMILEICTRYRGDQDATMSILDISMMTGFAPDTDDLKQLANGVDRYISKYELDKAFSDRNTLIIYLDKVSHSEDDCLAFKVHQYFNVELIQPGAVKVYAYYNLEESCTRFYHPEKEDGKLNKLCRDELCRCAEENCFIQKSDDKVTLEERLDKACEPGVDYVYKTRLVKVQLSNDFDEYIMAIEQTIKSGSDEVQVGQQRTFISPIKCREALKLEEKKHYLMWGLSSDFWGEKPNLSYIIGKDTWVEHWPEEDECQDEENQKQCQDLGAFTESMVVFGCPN
C3 convertase complex, sequence (P00751 260-764, chain 2 of 2): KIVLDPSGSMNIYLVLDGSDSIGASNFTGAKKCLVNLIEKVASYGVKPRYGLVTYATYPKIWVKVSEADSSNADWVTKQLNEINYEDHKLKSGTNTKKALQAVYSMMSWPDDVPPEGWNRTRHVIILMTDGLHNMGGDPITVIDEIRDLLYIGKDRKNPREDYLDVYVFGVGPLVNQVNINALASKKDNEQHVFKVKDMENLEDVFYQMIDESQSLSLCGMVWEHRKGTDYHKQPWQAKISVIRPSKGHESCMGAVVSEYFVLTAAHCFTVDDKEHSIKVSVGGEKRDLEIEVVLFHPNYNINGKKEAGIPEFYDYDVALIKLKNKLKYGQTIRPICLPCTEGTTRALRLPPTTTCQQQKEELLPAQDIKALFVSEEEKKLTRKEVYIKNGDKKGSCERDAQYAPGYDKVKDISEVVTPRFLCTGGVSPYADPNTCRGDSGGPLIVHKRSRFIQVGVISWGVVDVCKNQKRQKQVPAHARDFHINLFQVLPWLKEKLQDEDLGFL

C3 convertase activity % of the control | C3 convertase activity IC50 [µg/mL] | Binder
1 % of the control | 6.05 | B1
5 % of the control | 2.19 | B2
0 % of the control | 493 | B3
4 % of the control | 1.87 | B4
